{
  "source": "patent US20030211523A1",
  "about": "(published 2003)",
  "molecules": {"B1": {"name": "Fyn_Fos peptide: Fyn myristoylation (membrane-localizing) signal fused to c-Fos aa 133-239, expressed from the 3-primer PCR product (other, UniProt P06241 1-10, looked up)", "chain": "MGCVQCKDKESPEEEEKRRIRRERNKMAAAKCRNRRRELTDTLQAETDQLEDEKSALQTEIANLLKEKEKLEFILAAHRPACKIPDDLGFPEEMSVASLDLTGGLPEVATPESEEAF", "modifications": "myristoylation signal at the N-terminus (membrane-localizing signal)", "notes": "domain: myristoylation signal;range 133-239; Expressed in HEK293T cells"}, "B2": {"name": "Fyn_JA: Fyn membrane-localizing signal fused to the JA domain of c-Jun (other, UniProt P06241 1-10, looked up)", "chain": "MGCVQCKDKEMTAKMETTFYDDALNASFLPSESGPYGYSNPKILKQSMTLNLADPVGSLKPHLRAKNSDLLTSPDVGLLKLASPELERLIIQSSNGHITTTPTPTQFLCPKNVTDEQEGFAEGFVRALAELHSQNTLPSVTSAAQPVNGAGMVAPAVASVAGGSGSGGFSASLHSEPPVYANLSNFNPGALSSGGGAPSYGAAGLAFPAQPQQQQQPPHHLPQQMPVQHPRLQ", "modifications": "myristoylation signal at the N-terminus (membrane-localizing signal)", "notes": "domain: myristoylation signal;range 1-223"}},
  "key": {"[1]": {"molecular_target": "VP16 transcription activation domain fused to aa 133-239 of c-Fos, encoded by PMVP_Fos (human) (UniProt P01100)", "assay": "cell-based or functional assay"}, "[2]": {"molecular_target": "VP16 activation domain alone, encoded by the empty prey vector PMVP (UniProt P06492)", "sequence (P06492 411-456 limits assumed)": "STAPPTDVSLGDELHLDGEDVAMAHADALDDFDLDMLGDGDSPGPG", "assay": "cell-based or functional assay"}, "[3]": {"molecular_target": "T1, JA domain (aa 1-223) of c-Jun fused with GFP, encoded by PMNGFP_JA (human, UniProt P05412 1-223; P42212 1-238 = GFP)", "T1 construct": "Expressed in HEK293T cells", "assay": "in vivo binding screening: membrane localization of the GFP fusion in HEK293T cells, fluorescence microscopy"}, "[4]": {"molecular_target": "T2, JZ domain of c-Jun fused with GFP, encoded by PMNGFP_JZ (human, UniProt P05412 249-331; P42212 1-238 = GFP)", "T2 construct": "Expressed in HEK293T cells; also called bait in the second screening", "assay": "in vivo binding screening: membrane localization of the GFP fusion in HEK293T cells, fluorescence microscopy"}},
  "data": [
    {"molecule": "Gal4 DNA-binding domain alone, encoded by the empty bait vector PMBD (from UniProt P04386 1-147)", "values": [
      {"measurement": "events with GFP 30-fold or more above the background (FACS) (event in 10000)", "setting": "[1]", "value": "< 1"}
    ]},
    {"molecule": "Gal4 DNA-binding domain fused to the JZ domain (aa 249-331) of c-Jun, encoded by PMBD_JZ (from UniProt P04386 1-147; P05412 249-331)", "values": [
      {"measurement": "events with GFP 30-fold or more above the background (FACS) (event in 10000)", "setting": "[2]", "value": "< 1"}
    ]},
    {"molecule": "B1", "values": [
      {"measurement": "binding result", "setting": "[3]", "value": "no binding"}
    ]},
    {"molecule": "B2", "values": [
      {"measurement": "binding result", "setting": "[4]", "value": "no binding"}
    ]}
  ]
}
